# Data published in patent publication US20230103885A1 (CRISPR THERAPEUTICS, published 2023).
# T1: FMC63-scFv linker peptide
# T1 construct: also called coating antigen B
# T1 peptide: TGSTSGSGKPGSGEGSTKG
# Legend:
# [1] = molecular target: T2, anti-CD19 CAR comprising the anti-CD19 scFv of SEQ ID NO:1; experiment: flow cytometry on anti-CD19 CAR T cells, dilution 1:400
# T2 construct: also called anti-CD19 chimeric antigen receptor; anti-CD19 CAR T cells
# From the text: (§1) The 29E4B5 antibodies produced using the first or the second method were compared with a reference anti-FMC63-scFv antibody (rec_mab3) for the ability to bind to the anti-CD19 CAR T cells using flow cytometry. Both methods produced 29E4B5 antibodies with higher affinity to the anti-CD19 cells than rec_mab3, showing higher CAR positive percentage even at 1:6,400 dilutions (Table 9).
# [2] = molecular target: T3, Total human IgG (human); experiment: indirect ELISA, purified native antibody at 3.90 ng/ml (1:256,000)
# T3 construct: also called coating antigen D
# Method: (§2) In the first (native) method, hybridoma cells (29E4B5) were cultured in low IgG culture medium in a roller bottle for 10 days. The supernatants were collected and protein A purified to obtain purified antibodies. The purified antibodies were analyzed for the ability to bind the FMC63-scFv protein and anti-CD19 CAR T cells using ELISA (Table 8).
# (§3) A: Recombinant FMC63-scFv protein B: […] (FMC63-scFv linker peptide)(SEQ ID NO: 6) C: His-tagged protein D: Total human IgG The titer was the highest dilution where the Signal/Blank (S/B) ratio was ≥2.1. OD₄₅₀ for Blank was the average of two technical replicates. The starting concentration was 1 mg/ml, and the corresponding dilution ratio was calculated based on the actual concentration.
# [3] = molecular target: T1, FMC63-scFv linker peptide; experiment: as above
# Method: as §2, §3
# [4] = molecular target: T4, irrelevant His-tagged protein; experiment: as above
# T4 construct: also called coating antigen C
# Method: as §2, §3
# [5] = molecular target: T5, Recombinant FMC63-scFv protein; experiment: as above
# T5 construct: also called His-tagged single-chain variable fragment of mouse anti-human CD19 antibody FMC63; coating antigen A
# T5 sequence (scFv, as listed by the source): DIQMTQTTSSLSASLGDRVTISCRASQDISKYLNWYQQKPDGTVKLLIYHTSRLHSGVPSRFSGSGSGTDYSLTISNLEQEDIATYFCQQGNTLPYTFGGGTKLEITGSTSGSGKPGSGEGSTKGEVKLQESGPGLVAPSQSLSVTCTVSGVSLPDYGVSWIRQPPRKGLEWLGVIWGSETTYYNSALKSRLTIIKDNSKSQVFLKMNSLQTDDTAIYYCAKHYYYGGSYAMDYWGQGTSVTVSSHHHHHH
# Method: as §2, §3
# [6] = molecular target: T2, anti-CD19 CAR comprising the anti-CD19 …; experiment: flow cytometry on anti-CD19 CAR T cells, dilution 1:800
# From the text: as §1
# [7] = molecular target: T2, anti-CD19 CAR comprising the anti-CD19 …; experiment: flow cytometry on anti-CD19 CAR T cells, dilution 1:3200
# From the text: as §1
# [8] = molecular target: T3, Total human IgG; experiment: indirect ELISA, purified native antibody at 1,000 ng/ml (1:1,000)
# Method: as §2, §3
# [9] = molecular target: T1, FMC63-scFv linker peptide; experiment: as above
# Method: as §2, §3
# [10] = molecular target: T4, irrelevant His-tagged protein; experiment: as above
# Method: as §2, §3
# [11] = molecular target: T5, Recombinant FMC63-scFv protein; experiment: as above
# Method: as §2, §3
# [12] = molecular target: T3, Total human IgG; experiment: indirect ELISA, purified native antibody at 31.25 ng/ml (1:32,000)
# Method: as §2, §3
# [13] = molecular target: T1, FMC63-scFv linker peptide; experiment: as above
# Method: as §2, §3
# [14] = molecular target: T4, irrelevant His-tagged protein; experiment: as above
# Method: as §2, §3
# [15] = molecular target: T5, Recombinant FMC63-scFv protein; experiment: as above
# Method: as §2, §3
# [16] = molecular target: T3, Total human IgG; experiment: indirect ELISA, purified native antibody at 15.62 ng/ml (1:64,000)
# Method: as §2, §3
# [17] = molecular target: T1, FMC63-scFv linker peptide; experiment: as above
# Method: as §2, §3
# [18] = molecular target: T4, irrelevant His-tagged protein; experiment: as above
# Method: as §2, §3
# [19] = molecular target: T5, Recombinant FMC63-scFv protein; experiment: as above
# Method: as §2, §3
# [20] = molecular target: T3, Total human IgG; experiment: indirect ELISA, purified native antibody at 62.50 ng/ml (1:16,000)
# Method: as §2, §3
# [21] = molecular target: T1, FMC63-scFv linker peptide; experiment: as above
# Method: as §2, §3
# [22] = molecular target: T4, irrelevant His-tagged protein; experiment: as above
# Method: as §2, §3
# [23] = molecular target: T5, Recombinant FMC63-scFv protein; experiment: as above
# Method: as §2, §3
# [24] = molecular target: T2, anti-CD19 CAR comprising the anti-CD19 …; experiment: flow cytometry on anti-CD19 CAR T cells, dilution 1:50
# From the text: as §1
# [25] = molecular target: T3, Total human IgG; experiment: indirect ELISA, purified native antibody at 125 ng/ml (1:8,000)
# Method: as §2, §3
# [26] = molecular target: T1, FMC63-scFv linker peptide; experiment: as above
# Method: as §2, §3
# [27] = molecular target: T4, irrelevant His-tagged protein; experiment: as above
# Method: as §2, §3
# [28] = molecular target: T5, Recombinant FMC63-scFv protein; experiment: as above
# Method: as §2, §3
# [29] = molecular target: T2, anti-CD19 CAR comprising the anti-CD19 …; experiment: flow cytometry on anti-CD19 CAR T cells, dilution 1:6400
# From the text: as §1
binder,measurement,setting,value
"mouse anti-FMC63-scFv monoclonal antibody 29E4B5 (antibody, mouse IgG1, kappa, V domains shown, Hybridoma-derived antibody (culture supernatant, microscale purified, or protein A purified native lot), isotype IgG1, kappa; These are left out by the residue ranges; also called 29E4B5-1; 29E4B5-1 (Native)) VH: EVKLLQSGGGLVQPGGSLKLSCAASGIDFSRYWMSWVRRAPGKGLEWIGEINLDSSTKNYAPSLKDKFIISRDNAKNTLYLQMSKVRSEDTALYYCARNYVGMDYWGQGTSVTVSS VL: DIVLTQSPASLAVSLGQRATISCRASKSVSSSDYTYMHWYQQKPGQPPKLLIYLASNLESGVPARFSGSGSGTDFTLNIHPVEEEDAATYYCQHSRELPPTFGGGTKLEIKR",% CAR+,[1],67.6%
same,OD450,[2],0.073 OD450
same,OD450,[3],0.068 OD450
same,OD450,[4],0.084 OD450
same,OD450,[5],0.407 OD450
same,% CAR+,[6],67.6%
same,% CAR+,[7],62.9%
same,OD450,[8],0.073 OD450
same,OD450,[9],0.064 OD450
same,OD450,[10],0.059 OD450
same,OD450,[11],1.88 OD450
same,OD450,[12],0.076 OD450
same,OD450,[13],0.061 OD450
same,OD450,[14],0.059 OD450
same,OD450,[15],1.32 OD450
same,OD450,[16],0.067 OD450
same,OD450,[17],0.067 OD450
same,OD450,[18],0.088 OD450
same,OD450,[19],0.983 OD450
same,OD450,[20],0.071 OD450
same,OD450,[21],0.075 OD450
same,OD450,[22],0.051 OD450
same,OD450,[23],1.71 OD450
same,% CAR+,[24],70.1%
same,OD450,[25],0.069 OD450
same,OD450,[26],0.059 OD450
same,OD450,[27],0.057 OD450
same,OD450,[28],1.79 OD450
same,% CAR+,[29],60.5%
